Data: patent US20250346646A1, “COMPOUNDS USEFUL TO TREAT METABOLIC DISORDERS” (President and Fellows of Harvard College, priority 2016, published 2025)
Blank lines part the entries; values can stand above or below the molecule they belong to.

Key:
[1] = system: mice with diet induced obesity; assay: Glucagon challenge test in mice with diet induced obesity; type: in vivo, mouse; settings: HFD 20 weeks; 33 mg/kg i.p. twice a week for 3 weeks; 150 μg/kg glucagon after 4-hour fast; vs vehicle
Procedure: Mice were fed high fat diet for 20 weeks prior to the experiment. Starting from the 20th week, mice were injected with vehicle or anti-aP2 mAb at a dose of 33 mg/kg injected i.p. twice a week for 3 weeks.

glucagon = glucagon (Homo sapiens, UniProt P01275); assay: Microscale thermophoresis, binding to glucagon; settings: read-out: Kd, binding to glucagon; MST
aP2 deficient mice [2] = assay: Glucagon injection test (glycaemia) in aP2 deficient mice; settings: 4-hour food withdrawal
Source text: Graphs show data as mean s.e.m. Experiments were repeated at least three times with similar results.
One-way ordinary ANOVA, with Tukey correction was used for multiple group comparisons. Experiments were repeated at least three times with similar results.

human glucagon receptor = human glucagon receptor (Homo sapiens, UniProt P47871); assay: cAMP-response element luciferase reporter in CHO-K1 cells expressing human GCGR-GFP; type: cell-based; settings: CHO-K1 human GCGR cAMP reporter
Procedure: Bar graphs represent mean±standard deviation (s.d.), n=4-5 per group. *P<0.05, **P<0.01, ***P≤0.001, ****P≤0.0001, ns P>0.05. Multiple group comparisons were done using one-way ANOVA statistics with Tukey post-test correction. Graphs show data as mean±standard error of mean (s.e.m.), analyzed using two-way ANOVA.
During cloning hexahistadine and WELQ protease site was added for protein purification. Murine aP2 gene was cloned into pet21+ vector after the hexahistadine tag and TEV protease site for ease of purification.
Plasmids were transfected using Lipofectamine (Invitrogen) according to manufacturer's instructions. Transiently transfected cells were grown in appropriate selection antibiotics where applicable for stable cell line generation. Following three passages under selection media, single cell colonies were picked and expanded for experimentation after validation.

biotin-glucagon = biotin-glucagon (Homo sapiens, UniProt P01275); assay: Bio-Layer Interferometry: aP2 binding to biotin-glucagon; settings: read-out: Kdapp aP2 / biotinylated glucagon; biolayer interferometry, 25° C., PBS
GCGR-ecd = target: T1, GCGR-ecd (Homo sapiens, UniProt P47871); assay: Biolayer interferometry: GCGR-ecd binding to biotin-glucagon with or without aP2; settings: BLITZ biolayer interferometry
T1 construct: GCGR extracellular domain was cloned into pFastBac shuttle vector; hexahistidine; WELQ protease site; made in house; host or cells: baculovirus expression system (pFastBac)

aP2 deficient mice [3] = assay: Hyper-insulinemic-pancreatic clamp in aP2 deficient mice; type: in vivo, mouse; settings: insulin 3 mU/kg/min, vs vehicle
Source text: Multiple group comparisons under clamp conditions were done using one-way ANOVA statistics with Tukey post-test correction. Basal and clamp conditions between groups were compared using repeated measures two-way ANOVA with Sidak correction. Graphs show data as mean s.e.m.

aP2 knockout mice = assay: Glucagon response of aP2 knockout mice given aP2, with or without CA33 preincubation; type: in vivo, mouse; settings: CA33 preincubated with aP2
Source text: Mouse and rabbit-mouse hybrid monoclonal antibodies raised against the human and mouse aP2 peptides were produced and screened. […] The systemic improvement in glucose metabolism was further verified using a glucose tolerance test (GTT).

[4] = system: HepG2-C3A human hepatoma cell line; assay: Glycogenolysis (14C-glucose release) in HepG2-C3A cells; type: cell-based; settings: 24 hours stimulation, aP2 with glucagon
Source text: (§1) Bar graphs represent mean±standard deviation (s.d.), n=4-5 per group. *P≤0.05, **P≤0.01, ***P≤0.001, ****P≤0.0001, ns P>0.05. Multiple group comparisons were done using one-way ANOVA statistics with Tukey post-test correction.

primary hepatocytes = assay: De-novo glucose production in primary hepatocytes; type: cell-based, mouse; settings: 4 hours stimulation, aP2 with glucagon
Source text: as §1

[5] = system: G6Pc and Pck1 expression in primary hepatocytes; assay: Gluconeogenic gene expression (G6Pc, Pck1) in primary hepatocytes; type: cell-based, mouse; settings: glucagon 100 nM plus recombinant aP2, vs glucagon alone

Chain of human glucagon receptor (P47871 26-477): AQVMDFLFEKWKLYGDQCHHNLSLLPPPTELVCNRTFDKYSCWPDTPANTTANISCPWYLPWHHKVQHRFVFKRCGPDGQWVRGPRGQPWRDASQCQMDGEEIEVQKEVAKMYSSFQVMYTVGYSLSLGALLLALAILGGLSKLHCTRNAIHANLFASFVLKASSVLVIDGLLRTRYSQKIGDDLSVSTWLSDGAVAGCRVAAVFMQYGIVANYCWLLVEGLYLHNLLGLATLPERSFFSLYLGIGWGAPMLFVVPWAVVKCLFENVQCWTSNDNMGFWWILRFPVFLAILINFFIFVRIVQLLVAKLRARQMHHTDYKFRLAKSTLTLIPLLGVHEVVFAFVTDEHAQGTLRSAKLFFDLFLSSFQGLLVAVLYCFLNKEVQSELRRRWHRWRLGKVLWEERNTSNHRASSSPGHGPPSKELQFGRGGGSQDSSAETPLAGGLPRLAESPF
Chain of biotin-glucagon (P01275 53-81 limits assumed): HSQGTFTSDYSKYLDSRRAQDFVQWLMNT
T1 sequence (P47871 26-136 limits assumed): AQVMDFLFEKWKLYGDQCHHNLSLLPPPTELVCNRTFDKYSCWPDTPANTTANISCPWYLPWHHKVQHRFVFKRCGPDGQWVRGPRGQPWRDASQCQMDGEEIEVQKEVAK

B1: anti-aP2 mAb: anti-aP2 monoclonal antibody of Example 4, identity not stated (probably CA33) (antibody, V domains shown)
VH: QSVEESGGRLVTPGTPLTLTCTVSGFSLSTYYMSWVRQAPGKGLEWIGIIYPSGSTYCASWAKGRFTISKASTTVDLKITSPTTEDTATYFCARPDNDGTSGYLSGFGLWGQGTLVTVSS
VL: DVVMTQTPASVSEPVGGTVTIKCQASEDISRYLVWYQQKPGQPPKRLIYKASTLASGVPSRFKGSGSGTDFTLTISDLECDDAATYYCQCTYGTYAGSFFYSFGGGTEVVVE
Response to glucagon injection (glucose levels) [1]: significantly lower response

Kd (glucagon): ~0.214 µM | Increase of glucagon potency by aP2 addition (human glucagon receptor): more than one order of magnitude | Kd (biotin-glucagon): 2.34 µM | Change of dissociation constant of glucagon to GCGR-ecd on addition of aP2 (GCGR-ecd): an order of magnitude decrease
B2: aP2: adipocyte lipid binding protein (aP2), also known as fatty-acid binding protein 4 (FABP4), recombinant (protein)
chain: MCDAFVGTWKLVSSENFDDYMKEVGVGFATRKVAGMAKPNMIISVNGDLVTIRSESTFKNTEISFKLGVEFDEITADDRKVKSIITLDGGALVQVQKWDGKSTTIKRKRDGDKLVVECVMKGVTSTRVYERA
Glycaemia response (glucagon responsiveness) (aP2 deficient mice [2]): little to no-response | Hepatic glucose production / counterregulatory response to insulin (aP2 deficient mice [3]): not seen | Glucagon responsiveness of aP2 knockout mice (aP2 knockout mice): rescues glucagon unresponsiveness | Glycogenolysis [4]: increased | Hepatic glucose production (primary hepatocytes): increased | Expression of gluconeogenic genes [5]: further increased
